Reference: the supplement of paper PMC7877785
± gives the uncertainty stated by the source.

Test: self-splicing fitness, log relative to wild type (ln ratio); higher = more splicing; Tetrahymena group I intron in knt gene, E. coli kanamycin selection, DiMSum; sequences stand for … in CUCUCU…GGAGGGAAAAGUUAUCAGGCAUGCACCUGGUAGCUAGUCUUUAAACCAAUAGAUUGCAUCGGUUUAAAAGGCAAGACCGUCAAAUUGCGGGAAAGGGGUCAACAGCCGUUCAGUACCAAGUCUCAGGGGAAACUUUGAGAUGGCCUUGCAAAGGGUAUGGUAAUAAGCUGACGGACAUGGUCCUAACCACGCAGCCAAGUCCUAAGUCAACAGAUCUUCUGUUGAUAUGGAUGCAGUUCACAGACUAAAUGUCGGUCGGGGAAGAUGUAUUCUUCUCAUAAGAUAUAGUCGGACCUCUCCUUAAUGGGAGCUAGCGGAUGAAGUGAUGCAACACUGGAGCCGCUGGGAACUAAUUUGUAUGCGAAAGUAUAUUGAUUAGUUUUGGAGUACUCGUGGUCG
In short: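 Pooled colonies went to amplicon sequencing on an Illumina HiSeq 2500 after six replicate transformations. The plates were LB agar with 100 μg/mL carbenicillin, 50 μM IPTG and 0.2% rhamnose, with or without 25 μg/mL kanamycin, incubated overnight at 37°C or 30°C. The E. coli BL21(DE3) library had all eight P1ex-region intron nucleotides randomised, the intron placed in the knt kanamycin-resistance gene on pET-22b(+). DiMSum fitness is the error-weighted combination of replicate fold changes, kanamycin against none, normalised to wild type.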

Row | Sequence | self-splicing fitness (ln) (30 °C) | self-splicing fitness (ln) (37 °C)
1 | UGAGAGCAAUAUUACGACUC | -2.96 ± 0.47 | -2.73 ± 0.45
2 | CGGCAGCAAUAUUACGAUUU | -3.18 ± 0.22 | -2.64 ± 0.23
3 | GCCCAGCAAUAUUACGGAUC | -0.448 ± 0.044 | -0.289 ± 0.056
4 | GUCGAGCAAUAUUACGGCUA | -1.78 ± 0.21 | -1.47 ± 0.18
5 | CAUGAGCAAUAUUACGACUG | -1.78 ± 0.13 | -0.743 ± 0.18
6 | CGAAAGCAAUAUUACGAGGA | -3.36 ± 0.25 | -1.13 ± 0.21
7 | UAUUAGCAAUAUUACGGUUU | -3.75 ± 0.37 | -2.08 ± 0.2
8 | GGGAAGCAAUAUUACGGCCA | -0.752 ± 0.14 | -0.611 ± 0.19
9 | CAUCAGCAAUAUUACGAAGA | -2.97 ± 0.27 | -0.441 ± 0.15
10 | GACUAGCAAUAUUACGCUCC | -3.46 ± 0.47 | –
11 | GCGAAGCAAUAUUACGUAAA | -1.85 ± 0.16 | -2.12 ± 0.23
12 | CAAGAGCAAUAUUACGUUAG | -1.97 ± 0.11 | -0.995 ± 0.12
13 | AGCGAGCAAUAUUACGGUGC | -4.03 ± 0.28 | -2.97 ± 0.24
14 | GCUGAGCAAUAUUACGACCC | – | -0.524 ± 0.39
15 | UUGAAGCAAUAUUACGGUAU | -2.49 ± 0.11 | -1.5 ± 0.18
16 | CAGGAGCAAUAUUACGGUUU | -3.2 ± 0.41 | –
17 | CCUCAGCAAUAUUACGAUCA | -3.65 ± 0.22 | -2.96 ± 0.26
18 | GAGUAGCAAUAUUACGUUGU | -2.19 ± 0.17 | -1.41 ± 0.16
19 | CCCUAGCAAUAUUACGAGGA | -1.66 ± 0.074 | -0.53 ± 0.075
20 | ACCCAGCAAUAUUACGAUGC | -1.31 ± 0.06 | 0.13 ± 0.073
21 | UGAUAGCAAUAUUACGAGAU | -3.87 ± 0.43 | -1.92 ± 0.3
22 | ACAUAGCAAUAUUACGACGC | -0.172 ± 0.071 | 0.801 ± 0.1
23 | UUCCAGCAAUAUUACGCAUA | -0.568 ± 0.093 | 0.161 ± 0.096
24 | CGCCAGCAAUAUUACGCGGG | -4.25 ± 0.2 | -3.11 ± 0.24
25 | CCAUAGCAAUAUUACGUUUU | -3.58 ± 0.16 | -2.75 ± 0.17
26 | UCGUAGCAAUAUUACGUAAU | -2.47 ± 0.14 | -1.78 ± 0.17

Row | Sequence | self-splicing fitness (ln) (30 °C) | self-splicing fitness (ln) (37 °C)
27 | ACUCAGCAAUAUUACGUAUA | -2.19 ± 0.11 | -1.11 ± 0.1
28 | AAUGAGCAAUAUUACGCUCU | -3.18 ± 0.19 | -3.53 ± 0.23
29 | CCUGAGCAAUAUUACGCUUC | -3.16 ± 0.48 | -2.4 ± 0.41
30 | GCAGAGCAAUAUUACGAAGA | -1.88 ± 0.36 | –
31 | CUACAGCAAUAUUACGAAUC | -4.32 ± 0.23 | -2.61 ± 0.23
32 | AGGAAGCAAUAUUACGUUUU | -4.64 ± 0.31 | -1.82 ± 0.23
33 | GAGCAGCAAUAUUACGAGCG | -2.3 ± 0.092 | -1.11 ± 0.11
34 | UAAAAGCAAUAUUACGGGUG | -0.67 ± 0.042 | -0.46 ± 0.061
35 | UCACAGCAAUAUUACGGGAG | -3.75 ± 0.17 | -3.24 ± 0.22
36 | AGGGAGCAAUAUUACGGAGA | -2.65 ± 0.4 | -2.69 ± 0.32
37 | GUGCAGCAAUAUUACGGCUA | -0.0246 ± 0.077 | 0.17 ± 0.096
38 | AAAAAGCAAUAUUACGGUUA | 0.0411 ± 0.067 | -0.012 ± 0.079
39 | ACACAGCAAUAUUACGUUAG | -3.46 ± 0.094 | -2.44 ± 0.1
40 | UACAAGCAAUAUUACGUAUC | -3.94 ± 0.24 | -2.69 ± 0.21
41 | UGACAGCAAUAUUACGCGUU | -3.69 ± 0.16 | -2.75 ± 0.17
42 | GAUCAGCAAUAUUACGAGUC | -3.31 ± 0.29 | -0.73 ± 0.16
43 | GUGUAGCAAUAUUACGGCCG | -0.432 ± 0.22 | -0.71 ± 0.34
44 | UACCAGCAAUAUUACGGCGG | -1.07 ± 0.058 | -0.549 ± 0.081
45 | UAUCAGCAAUAUUACGUCGC | – | -2.03 ± 0.33
46 | GAUCAGCAAUAUUACGCCUC | -1.36 ± 0.18 | -0.876 ± 0.23
47 | ACAAAGCAAUAUUACGCAGG | -1.47 ± 0.064 | -1.21 ± 0.08
48 | GGAUAGCAAUAUUACGAUCC | -1.95 ± 0.45 | –
49 | AUCGAGCAAUAUUACGCUCA | -1.09 ± 0.26 | -0.721 ± 0.4
50 | GGAGAGCAAUAUUACGCGGU | -3.77 ± 0.47 | –
51 | AGAAAGCAAUAUUACGUUAC | -3.26 ± 0.19 | -1.89 ± 0.18
52 | UAGCAGCAAUAUUACGCUGU | -3.59 ± 0.25 | -3.42 ± 0.35

Row | Sequence | self-splicing fitness (ln) (30 °C) | self-splicing fitness (ln) (37 °C)
53 | GCCAAGCAAUAUUACGCGCU | -1.33 ± 0.063 | -0.352 ± 0.082
54 | GACCAGCAAUAUUACGCAAA | -1.75 ± 0.11 | -0.859 ± 0.1
55 | GGUUAGCAAUAUUACGAGUG | -2.59 ± 0.35 | -1.39 ± 0.19
56 | CAUCAGCAAUAUUACGGCGC | -2.95 ± 0.13 | -0.694 ± 0.15
57 | UGCUAGCAAUAUUACGAGCU | -0.987 ± 0.068 | -0.622 ± 0.082
58 | CUCGAGCAAUAUUACGGCAC | -3.63 ± 0.25 | -2.16 ± 0.36
59 | AUUUAGCAAUAUUACGAACG | -0.287 ± 0.16 | -0.464 ± 0.29
60 | UAUAAGCAAUAUUACGAGUG | 0.0329 ± 0.08 | -0.16 ± 0.099
61 | ACAUAGCAAUAUUACGUAAG | -1.94 ± 0.085 | -1.6 ± 0.12
62 | AGGGAGCAAUAUUACGUUCU | -3.19 ± 0.44 | –
63 | UCGUAGCAAUAUUACGACAG | – | -1.5 ± 0.29
64 | ACAUAGCAAUAUUACGGUAA | -2.88 ± 0.15 | -1.52 ± 0.12
65 | ACCAAGCAAUAUUACGGGAG | -3.22 ± 0.13 | -2.66 ± 0.14
66 | UACCAGCAAUAUUACGCCCC | -2.68 ± 0.5 | -0.87 ± 0.4
67 | AUGUAGCAAUAUUACGUAUG | -3.84 ± 0.29 | -3.16 ± 0.28
68 | GGCCAGCAAUAUUACGCACA | -0.344 ± 0.16 | -0.177 ± 0.17
69 | AAGCAGCAAUAUUACGGUGG | -3.64 ± 0.18 | -1.98 ± 0.17
70 | GCUCAGCAAUAUUACGACUA | -0.565 ± 0.17 | -0.247 ± 0.18
71 | CCUCAGCAAUAUUACGCGGC | -3.25 ± 0.2 | -2.5 ± 0.2
72 | UGUCAGCAAUAUUACGUUAA | -0.609 ± 0.1 | -0.411 ± 0.11
73 | UCCUAGCAAUAUUACGCCGC | -3.1 ± 0.26 | -3.49 ± 0.35
74 | GAUCAGCAAUAUUACGGAUU | -3.32 ± 0.24 | -2.52 ± 0.24
75 | AUAGAGCAAUAUUACGGCCC | -1.68 ± 0.17 | -0.799 ± 0.3
76 | CGAAAGCAAUAUUACGCAGC | -3 ± 0.24 | -3.68 ± 0.33
77 | CAUUAGCAAUAUUACGUCAG | -0.381 ± 0.091 | -0.0898 ± 0.098
78 | UUACAGCAAUAUUACGGCAA | -0.112 ± 0.11 | -0.272 ± 0.12
